{
  "source": "paper PMC10937945",
  "biological_target": "HTNV-L (full-length Hantaan virus polymerase, L protein) (Hantaan virus (strain 76-118/Korean …, UniProt P23456 1-2151))",
  "sequence (P23456 whole entry)": "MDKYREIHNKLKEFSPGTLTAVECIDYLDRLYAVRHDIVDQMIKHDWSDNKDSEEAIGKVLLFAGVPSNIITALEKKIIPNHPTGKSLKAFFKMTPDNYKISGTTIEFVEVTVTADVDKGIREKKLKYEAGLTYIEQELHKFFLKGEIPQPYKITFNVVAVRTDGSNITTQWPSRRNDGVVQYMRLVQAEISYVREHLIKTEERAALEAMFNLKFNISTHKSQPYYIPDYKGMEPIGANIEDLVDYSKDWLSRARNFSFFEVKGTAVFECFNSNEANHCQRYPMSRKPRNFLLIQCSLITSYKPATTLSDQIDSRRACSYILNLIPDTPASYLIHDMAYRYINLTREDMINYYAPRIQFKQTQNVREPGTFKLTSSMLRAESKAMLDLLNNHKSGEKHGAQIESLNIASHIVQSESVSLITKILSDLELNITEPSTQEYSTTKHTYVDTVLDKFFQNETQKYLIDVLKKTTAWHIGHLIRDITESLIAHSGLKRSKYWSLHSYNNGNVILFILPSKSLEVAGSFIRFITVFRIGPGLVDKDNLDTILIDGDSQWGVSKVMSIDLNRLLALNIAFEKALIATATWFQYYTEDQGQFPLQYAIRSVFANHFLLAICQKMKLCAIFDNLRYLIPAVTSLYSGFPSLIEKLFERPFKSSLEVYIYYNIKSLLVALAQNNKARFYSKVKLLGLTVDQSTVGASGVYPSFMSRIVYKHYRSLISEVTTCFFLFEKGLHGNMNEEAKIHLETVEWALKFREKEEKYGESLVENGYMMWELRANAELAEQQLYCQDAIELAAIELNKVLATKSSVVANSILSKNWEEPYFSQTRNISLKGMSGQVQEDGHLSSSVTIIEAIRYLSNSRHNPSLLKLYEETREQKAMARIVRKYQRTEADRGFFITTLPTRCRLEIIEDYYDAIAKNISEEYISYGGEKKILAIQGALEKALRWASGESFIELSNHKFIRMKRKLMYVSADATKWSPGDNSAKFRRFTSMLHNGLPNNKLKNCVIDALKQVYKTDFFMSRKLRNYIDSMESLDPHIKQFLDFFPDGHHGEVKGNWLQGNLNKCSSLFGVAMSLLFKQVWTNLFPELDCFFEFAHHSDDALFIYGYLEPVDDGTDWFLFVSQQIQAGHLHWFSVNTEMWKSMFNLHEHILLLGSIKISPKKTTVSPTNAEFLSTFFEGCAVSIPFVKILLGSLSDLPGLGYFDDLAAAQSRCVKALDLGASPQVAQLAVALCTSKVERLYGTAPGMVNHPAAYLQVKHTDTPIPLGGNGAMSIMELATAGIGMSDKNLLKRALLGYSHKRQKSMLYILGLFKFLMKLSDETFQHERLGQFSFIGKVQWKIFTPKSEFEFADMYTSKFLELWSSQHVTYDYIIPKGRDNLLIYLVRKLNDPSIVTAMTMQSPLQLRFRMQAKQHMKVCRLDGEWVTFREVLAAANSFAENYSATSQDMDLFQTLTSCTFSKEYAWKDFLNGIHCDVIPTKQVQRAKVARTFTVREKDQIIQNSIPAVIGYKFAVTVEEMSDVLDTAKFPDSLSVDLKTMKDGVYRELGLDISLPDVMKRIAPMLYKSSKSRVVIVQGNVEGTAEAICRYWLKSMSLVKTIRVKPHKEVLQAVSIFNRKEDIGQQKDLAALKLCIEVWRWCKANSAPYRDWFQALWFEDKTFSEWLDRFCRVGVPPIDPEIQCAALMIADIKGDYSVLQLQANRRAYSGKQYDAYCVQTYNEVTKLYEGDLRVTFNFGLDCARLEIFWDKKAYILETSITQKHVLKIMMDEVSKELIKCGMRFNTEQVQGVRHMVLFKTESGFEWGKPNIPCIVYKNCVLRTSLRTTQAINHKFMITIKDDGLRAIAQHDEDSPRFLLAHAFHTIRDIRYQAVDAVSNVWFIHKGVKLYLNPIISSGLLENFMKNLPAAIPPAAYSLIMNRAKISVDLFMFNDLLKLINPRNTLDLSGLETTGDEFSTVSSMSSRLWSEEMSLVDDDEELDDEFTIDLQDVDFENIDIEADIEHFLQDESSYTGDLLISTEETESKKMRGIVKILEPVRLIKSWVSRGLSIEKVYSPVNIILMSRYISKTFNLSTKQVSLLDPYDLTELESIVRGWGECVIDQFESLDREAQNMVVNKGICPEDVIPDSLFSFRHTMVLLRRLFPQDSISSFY",
  "experiment": "cryo-EM; 30 mM HEPES pH 8, 250 mM NaCl, 5 mM TCEP ([…]; temperature not stated",
  "conditions": "protein: recombinant; tags: N-terminal His6",
  "data": [
    {"binder": "UAGUAGUAGACACCGCAAGAUGUUA (ssRNA)", "note": "[5'vRNA]", "values": [
      {"measurement": "binding result", "value": "binds"}
    ]}
  ]
}
